This note sets out measurements from patent US20240317847A1 (Bayer, published 2024).

In general, Kd refers to the equilibrium constant for the complex coming apart. Low readings indicate a tighter complex, high ones a looser complex. As usually defined, the IC50 is the concentration that inhibits the measured activity by half. The term EC50 denotes the concentration giving half of the maximal effect. Read a low EC50 as an effect from little substance.

Substitutions are numbered along the chain they refer to. In names and notes the source's numbering stands.

One experiment deals with T1, human IL2Ra (human, UniProt P01589 22-240, limits assumed).
T1 construct: coated on the ELISA plate; also called IL-2 receptor alpha
T1 sequence (looked up): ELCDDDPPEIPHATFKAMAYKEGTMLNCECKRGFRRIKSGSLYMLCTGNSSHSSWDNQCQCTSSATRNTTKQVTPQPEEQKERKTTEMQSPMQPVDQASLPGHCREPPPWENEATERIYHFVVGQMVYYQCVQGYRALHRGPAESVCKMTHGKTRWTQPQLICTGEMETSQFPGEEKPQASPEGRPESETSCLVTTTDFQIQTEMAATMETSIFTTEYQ
The experiment can be described thus: ELISA on coated IL2Ra, signal ratio to isotype control at 1E-07 M antibody. The protocol: IL2RA (Peprotech, Germany, #200-02RC) was coated at 1 or 0 μg/ml (buffer only control) in 30 μl coating buffer (Candor, #113500) per well on a 384 well microtiter plate (Maxisorb, Nunc, #460518) over night at 4-8° C. After two washes with 50 μl/well washing buffer (PBS+0.05% Tween, pH 7.4), the plates were incubated for two hours at room temperature with 50 μl/well SmartBlock (Candor, #113500). After blocking, the plates were washed three times with washing buffer. Then, a dilution series of the respective antibody (1E-7 [M] down to 2E-13 [M]) in PBS+0.05% Tween, 10% SmartBlock were added in 30 μl to the microtiter plate and incubated for 90 min at room temperature. After three additional washes, 30 μl anti mouse IgG HRP-conjugated antibody (Biotechne, HAF007), diluted 1:1000 in PBS+0.05% Tween (pH 7.4), were added per well and incubated for one hour. After three additional washes, a mixture of Amplex red (Invitrogen, #12222, 10 mM stock solution in DMSO) 1:1000 diluted in PBS and H2O2 (30%, Merck, #107209)) diluted 1:10000 in PBS were added as substrate with 30 μl per well and incubated for 20 min in the dark. Relative fluorescence was measured with a microtiter plate reader at 535/590 nm.
Bispecific antibodies were subjected to the experimental assay procedure described in Example 20. Ratios of the signals generated at an antibody concentration of 1E-07 [M] by the respective bispecific antibody versus those of an isotype control antibody were calculated and are shown in Table E29. The bispecific antibodies show no binding to IL-2 Ra.
(In general: In an ELISA, binding on a coated surface is turned into a signal by an enzyme label.)

The target in another experiment is T2, rat IL-11 (rat, UniProt Q99MF5 22-199).
T2 construct: Invigate recombinant protein; also called rIL11
T2 sequence: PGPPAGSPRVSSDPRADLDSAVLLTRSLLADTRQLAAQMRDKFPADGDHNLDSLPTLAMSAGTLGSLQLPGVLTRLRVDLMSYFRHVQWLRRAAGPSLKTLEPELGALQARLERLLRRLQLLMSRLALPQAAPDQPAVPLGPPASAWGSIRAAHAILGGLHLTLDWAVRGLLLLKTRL
The experiment can be described thus: SPR (Biacore), 25 C, antibody captured via anti-Fc, IL-11 as analyte. The protocol: (§1) To assess the binding kinetics and affinity of anti-IL-11 bispecific antibodies as well as their species cross-reactivity profile, binding assays were conducted using surface plasmon resonance (SPR). […] Antibodies were captured either via anti-human Fc IgGs (“Human antibody capture kit”, Order No. BR100839, Cytiva) or via anti-mouse Fc IgGs (“Mouse antibody capture kit, Order No. BR100383, Cytiva) covalently amine coupled to a Series S CM5 sensor chip (Cytiva) depending on the isotype. The amine coupling was carried out according to the manufacturer's instructions using 1-ethyl-3-(3-dimethylaminopropyl) carbodiimide hydrochloride (EDC), N-hydroxysuccinimide (NHS) and ethanolamine HCl, pH 8.5 (“Amine Coupling Kit” BR-1000-50, Cytiva.). Human, mouse, cynomolgus or rat IL-11 was used as analyte at several dilutions within the concentration range from 0.05-200 nM. For binding assays with only one concentration 200 nM IL-11 was used. The sensor surface was regenerated with glycine pH 1.7 after each antigen injection. Obtained sensorgrams were double referenced (subtraction of reference flow cell signal and buffer injection) and were fitted to a 1:1 Langmuir binding model to derive kinetic data using the Biacore T200 Evaluation software or the Biacore Insight software.
(§2) If no value is reported, there was either no binding or very low binding and multiphasic binding behavior.
Background: Surface plasmon resonance follows binding to a sensor surface in real time, without labels.

Experiment [1] addresses T3, murine IL-11 (mouse, UniProt P47873 22-199).
T3 construct: Invigate recombinant protein; biotinylated when immobilized in the Di-complex ELISA; also called mIL11; mIL-11
T3 sequence: T2 sequence with N50S, F84L, A94G, A137V, V138I
The experiment is described as above. How it is done:
as §1, §2

Experiment [2] has as its target T4, human IL-11 (human, UniProt P20809 22-199).
T4 construct: Invigate recombinant protein; biotinylated when immobilized in the Di-complex ELISA; also called hIL11; hIL-11
T4 sequence: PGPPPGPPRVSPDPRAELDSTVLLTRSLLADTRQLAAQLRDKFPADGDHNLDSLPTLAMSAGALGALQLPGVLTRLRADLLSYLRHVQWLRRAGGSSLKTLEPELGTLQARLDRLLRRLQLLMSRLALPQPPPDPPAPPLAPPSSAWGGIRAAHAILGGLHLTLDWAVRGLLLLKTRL
Described as above. The protocol: as §1, §2

Another experiment has as its target T5, cynomolgus IL-11 (cynomolgus, UniProt P20808 22-199).
T5 construct: Invigate recombinant protein; also called cIL11; Macaca IL-11
T5 sequence: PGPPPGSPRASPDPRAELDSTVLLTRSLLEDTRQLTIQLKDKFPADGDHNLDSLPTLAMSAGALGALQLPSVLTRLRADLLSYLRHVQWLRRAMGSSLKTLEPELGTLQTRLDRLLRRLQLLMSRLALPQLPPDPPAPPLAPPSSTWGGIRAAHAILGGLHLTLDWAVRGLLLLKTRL
Described as above. How it is done:
as §1, §2

Experiment [3] concerns the target T3, murine IL-11. The experiment can be described thus: Di-complex ELISA, canine IL11RA-hFc binding to immobilized mIL-11, competition. The protocol:
(§3) In the Di-complex ELISA format anti IL-11 antibodies are tested for the ability to interfere with the formation of complexes consisting of immobilized murine IL-11 (Invigate, e.g., lot #C210819-09) or human IL-11 (Invigate, e.g., lot #C121021-19), and murine IL11RA-Fc fusion proteins or canine IL11RA-human-Fc fusion protein (FIG. 17a, b).
(§4) Bispecific antibodies were subjected to the experimental assay procedure described in Example 18 and IC50 [M], respectively efficacy (%) were calculated accordingly.

The target of experiment [4] is T3, murine IL-11. The experiment in a line: cell-based or functional assay.
Experiment [5] concerns the target T4, human IL-11. The experiment can be described thus: cell-based or functional assay.
The target in experiment [6] is T4, human IL-11. The experiment in a line: Di-complex ELISA, canine IL11RA-hFc binding to immobilized hIL-11, competition. How it is done:
as §3, §4

The target in experiment [7] is T4, human IL-11. The experiment in a line: Tri-complex ELISA, hIL-11 + mIL-11Ra-Fc + hgp130-Fc, inhibition of complex formation. The protocol: (§5) In the Tri-complex ELISA format IL-11 antibodies are tested for their ability to inhibit the formation of a complex consisting of murine or human gp130-Fc fusion protein, with murine or human IL-11, and a murine IL11RA-Fc fusion protein. The assay format was adapted according to FIG. 18 (a, b), depending on whether murine or human IL-11 IgG antibodies were tested.
(§6) Bispecific antibodies were subjected to the experimental assay procedure described in Example 19 and IC50 [M], respectively efficacy (%) were calculated accordingly.

Experiment [8] deals with T3, murine IL-11. The experiment in a line: Tri-complex ELISA, mIL-11 + mIL-11Ra-Fc + mgp130-Fc, inhibition of complex formation. The protocol: as §5, §6
Experiment [9] deals with T6, human IL-11 (Invigate, e.g., lot #C121021-19) (human, UniProt P20809 22-199).
T6 construct: Bought protein; also called hIL-11; hIL11
T6 sequence: T4 sequence
The experiment can be described thus: ELISA, receptor-Fc titrated on biotinylated IL-11 captured on streptavidin plate; species of IL-11 not said.

The target of experiment [10] is T7, murine IL-11 (Invigate, e.g., lot #C210819-09) (mouse, UniProt P47873 22-199).
T7 construct: Bought protein; biotinylated where captured on streptavidin plates; also called mIL-11; mIL11
T7 sequence: T2 sequence with N50S, F84L, A94G, A137V, V138I
The experiment is described as above.

B1: TPP-26195 (bispecific antibody, IgG1)
chain 1: EVQLLESGGGLVQPGGSLRLSCAASGFTFSSYGMHWVRQAPGKGLEWVSVISYDGSYKYYADSVKGRFTISRDNSKNTLYLQMNSLRAEDTAVYYCAAGVPDYWGQGTLVTVSSGGGGSGGGGSGGGGSQSVLTQPPSASGTPGQRVTISCTGSSSNIGAGYDVHWYQQLPGTAPKLLIYSNNERPSGVPDRFSGSKSGTSASLAISGLRSEDEADYYCAAWDDSLNGPVFGGGTKLTVLGGGGSGGGGSGGGGSGVECPPCPAPPVAGPSVFIFPPKPKDVLTITLTPKVTCVVVDISKDDPEVQFSWFVDDVEVHTAQTQPREEQFNSTFRSVSELPIMHQDWLNGKEFKCRVNSAAFPAPIEKTISKTKGRPKAPQVYTIPPPKEQMAKDKVSLWCMITDFFPEDITVEWQWNGQPAENYKNTQPIMDTDGSYFVYSKLNVQKSNWEAGNTFTCSVLHEGLHNHHTEKSLSHSPGK
chain 2: EVQLLESGGGLVQPGGSLRLSCAASGFTFSHYDMNWLRQAPGKGLEWVGVISYDGSNKFYADFVKGRFTISRDNSKNTLYLQMNSLRAEDTAVYYCARTPGSHFDYWGQGTLVTVSSGGGGSGGGGSGGGGSQSVLTQPPSASGTPGQRVTISCSGSSSNIGNNAVNWYQQLPGTAPKLLIYYDDLLPSGVPDRFSGSKSGTSASLAISGLRSEDEADYYCSAWDDSLNGVVFGGGTKLTVLGGGGSGGGGSGGGGSGVECPPCPAPPVAGPSVFIFPPKPKDVLTITLTPKVTCVVVDISKDDPEVQFSWFVDDVEVHTAQTQPREEQFNSTFRSVSELPIMHQDWLNGKEFKCRVNSAAFPAPIEKTISKTKGRPKAPQVYTIPPPKEQMAKDKVSLSCAITDFFPEDITVEWQWNGQPAENYKNTQPIMDTDGSYFVVSKLNVQKSNWEAGNTFTCSVLHEGLHNHHTEKSLSHSPGK
notes: scFv-kih-mIgG1
Turning to B1, the “Ratio IL-2Ra Binding Signal Antibody/Isotype Control” value in the experiment with human IL2Ra amounted to 146 ratio. Moreover, the Kd worked out at 0.045 nM in the experiment with rat IL-11, 0.046 nM with murine IL-11 [1], 0.083 nM in the experiment with human IL-11 [2] and 0.074 nM with cynomolgus IL-11. For the same molecule, the IC50 with murine IL-11 [3] was 4.1 nM; with human IL-11 [6] it was 6.3 nM; with human IL-11 [7] it was 1.28 nM; in the experiment with murine IL-11 [8], 0.258 nM. In addition, the “Efficacy (%), Stat3 reporter gene assay” value in the experiment with murine IL-11 [4] was found to be 96.9%; with human IL-11 [5] it was 88.5%. In addition, the “IC50, Stat3 reporter gene assay” value worked out at 1.8 nM in the experiment with murine IL-11 [4] and 0.65 nM with human IL-11 [5]. The “Efficacy (%)” value with human IL-11 [7] and with murine IL-11 [8] was 98% in each case.

B2: canine IL11RA-human-Fc fusion protein (Sino Biological, #70078-D02H) (Fc fusion)
chain: SPCPQAWGPPGVQYGQPGRSMTLCCPGVTAGAPVSWFRDGETRLLQGPDSGLGHELVLAQADSTDEGTYICRTLDGALGGIVTLQLGYPPARPVVSCQAADYENFSCTWSPSQVSGLPTRYLTSYRKKTVPGADGQRMSPSTGPWPCPQDPPGAARCVVHGAEFWSQYRINVTEVNPLGTSTRLLDVSLQSILRPDPPQGLRVESVPGYPRRLRASWTYPASWPRQPHFLLRFRLQYRPAQHPAWSTVEPAGLEEVITDAVAGLPHAVRVSARDFLDAGTWSAWSPEAWGTPSTGSLPKEIPAGGQPRKQLEEEPQADSPTPPRPSLLPDPRPLDQRDPLEQIAVLA
notes: Used in the Di-complex ELISA when murine IgGs were tested; also called canine IL11RA-Fc; Canine IL-11Ra fused to human Fc; not shown: human Fc (and any linker) of the bought fusion protein, Sino Biological #70078-D02H
Regarding B2, the EC50 in experiment [9] and in experiment [10] was roughly 2 nM in each case.
